According to publication PMC9121088, “The novel P330L pathogenic variant of aromatic amino acid decarboxylase maps on the catalytic flexible loop underlying its crucial role” (Cellular and Molecular Life Sciences: CMLS, 2022):
Where a chain is given by its changes, count along the chain named. Numbers in names are those of the source.

What was measured:
[1] = target: T1, aromatic amino acid decarboxylase (AADC), wild-type (Homo sapiens, UniProt P20711); test: CD thermal denaturation at […] nm ([…] to […] °C); DLS of cDopa-bound form; type: binding
T1 construct: gene DDC
T1 sequence (P20711 1-480): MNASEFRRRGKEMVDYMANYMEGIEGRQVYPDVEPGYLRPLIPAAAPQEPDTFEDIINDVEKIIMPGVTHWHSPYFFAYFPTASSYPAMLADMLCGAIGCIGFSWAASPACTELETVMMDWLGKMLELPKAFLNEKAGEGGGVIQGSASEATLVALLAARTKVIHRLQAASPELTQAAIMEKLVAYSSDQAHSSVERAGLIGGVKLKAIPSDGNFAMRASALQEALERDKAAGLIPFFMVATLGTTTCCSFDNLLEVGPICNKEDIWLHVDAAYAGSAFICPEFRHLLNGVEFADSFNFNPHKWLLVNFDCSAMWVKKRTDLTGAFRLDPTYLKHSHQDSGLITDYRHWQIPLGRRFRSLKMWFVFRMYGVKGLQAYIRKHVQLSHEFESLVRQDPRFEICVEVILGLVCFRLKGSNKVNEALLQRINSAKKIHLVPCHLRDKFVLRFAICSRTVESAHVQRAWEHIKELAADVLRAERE

[2] = target: T2, aromatic amino acid decarboxylase (AADC), P330L variant (Homo sapiens, UniProt P20711, P330L); test: CD thermal denaturation at […] nm ([…] to […] °C) of cDopa-bound form; type: binding
T2 construct: gene DDC
T2 sequence (P20711 1-480 P330L): T1 sequence (P20711 1-480) with P330L

[3] = target: T2, aromatic amino acid decarboxylase (AADC), P330L variant; test: intrinsic fluorescence quenching titration of apoenzyme (KD(PLP)); type: binding
[4] = target: T1, aromatic amino acid decarboxylase (AADC), wild-type; test: as above; type: binding
purified protein [5] = substrate: N[C@@H](Cc1ccc(O)c(O)c1)C(=O)O; test: purified protein; details: PLP active site; external aldimine with PLP; pH 7.4; 25.0 °C
purified protein [6] = substrate: N[C@@H](Cc1c[nH]c2ccc(O)cc12)C(=O)O; test: purified protein; type: biochemical, Homo sapiens; details: pH 7.4; 25.0 °C

C[C@@](Cc1ccc(O)c(O)c1)(NN)C(=O)O [cDopa, carbiDopa]
WT (°C) [1]: 68.9 ± 0.4 °C
P330L (°C) [2]: 69.9 ± 0.3 °C

Cc1ncc(COP(=O)(O)O)c(C=O)c1O [PLP, pyridoxal 5'-phosphate]
Kd [3]: 123 ± 19 nM
Kd [4]: 101 ± 10 nM

B1: aromatic amino acid decarboxylase (AADC), wild-type (Homo sapiens) (protein)
chain: T1 sequence (P20711 1-480)
Km (purified protein [5]): 16 ± 1 µM
kcat (purified protein [5]): 5.5 s⁻¹
kcat/Km (purified protein [5]): 344000 M⁻¹ s⁻¹
Km (purified protein [6]): 9 ± 1 µM
kcat (purified protein [6]): 0.56 ± 0.02 s⁻¹
kcat/Km (purified protein [6]): 62000 ± 7000 M⁻¹ s⁻¹

B2: aromatic amino acid decarboxylase (AADC), P330L variant (Homo sapiens; P330L) (protein)
chain: T1 sequence (P20711 1-480) with P330L
Km (purified protein [5]): 57 ± 2 µM
kcat (purified protein [5]): 0.0291 s⁻¹
kcat/Km (purified protein [5]): 510 M⁻¹ s⁻¹
Km (purified protein [6]): 29 ± 3 µM
kcat (purified protein [6]): 0.0092 ± 0.0003 s⁻¹
kcat/Km (purified protein [6]): 320 ± 30 M⁻¹ s⁻¹
